This is an account of results in patent US20050004351A1.

Holding throughout (experiment): competitive ELISA
Assay [1] concerns the target affinity purified β2GPI-dependent antiphospholipid antibody from patient 6641.
Assay [2] has as its target affinity purified β2GPI-dependent antiphospholipid antibody from patient 6501.
In assay [3] the target is affinity purified β2GPI-dependent antiphospholipid antibody from patient 6701.
Assay [4] deals with affinity purified β2GPI-dependent antiphospholipid antibody from patient 6203.
Assay [5] concerns the target affinity purified β2GPI-dependent antiphospholipid antibody from patient 7015.
Assay [6] has as its target affinity purified β2GPI-dependent antiphospholipid antibody from patient 7104.
For assay [7], the target named is affinity purified β2GPI-dependent antiphospholipid antibody from patient 6644.
The target in assay [8] is affinity purified β2GPI-dependent antiphospholipid antibody from patient 7101.
Assay [9] has as its target affinity purified β2GPI-dependent antiphospholipid antibody from patient 6632.
In assay [10] the target is affinity purified β2GPI-dependent antiphospholipid antibody from patient 6626.
In assay [11] the target is affinity purified β2GPI-dependent antiphospholipid antibody from patient 6652.
Assay [12] concerns the target affinity purified β2GPI-dependent antiphospholipid antibody from patient 7008.
The target of assay [13] is affinity purified β2GPI-dependent antiphospholipid antibody from patient 6509.

B1: recombinant human β2GPI domain 5, GlyHis6 (protein)
chain: GRASCKLPVKKATVVYQGERVKIQEKFKNGMLHGDKVSFFCKNKEKKCSYTEDAQCIDGTIEVPKCFKEHSSLAFWKTDASDVKPCGHHHHHH
Regarding B1, the Max inhibition in assay [1] stood at 10%; in assay [2] it was 10%; in assay [3], 10%; in assay [4], 5%; in [5], 10%; in assay [6], 0%. Also, the Max inhibition in assay [7] was determined as 10%; in [8], 5%; in [9] it was 10%; in assay [10], 10%; in assay [11] it was 15%; in assay [12], 20%. Moreover, the Max inhibition in [13] came out at 10%.
